In assay [1] the target is co-expressed CAP1-GFP/CAP2-GFP (human) (UniProt Q01518). The experiment in a line: co-purification.
The target in assay [2] is human CAP1 with C-terminal GFP and Strep-tag II (human) (UniProt Q01518). Briefly: co-purification.
In assay [3] the target is human CAP2 with C-terminal GFP and Strep-tag II (human) (UniProt P40123). Briefly: co-purification.
Assay [4] has as its target human INF2-nonCAAX full-length, untagged (human). Briefly: AUC.
For assay [5], the target named is CAP in the brain inhibitory fraction (CAP1 and CAP2 of mouse brain) (mouse (endogenous in brain)).
In assay [6] the target is GFP-Strep-tagged human INF2-nonCAAX full-length, purified (human).
For assay [7], the target named is INF2-Cterm labeled with tetramethylrhodamine (human) (UniProt Q27J81). Briefly: fluorescence polarisation.

Sequence of untagged CAP co-purifying with CAP-GFP (likely endogenous HEK293 CAP) (Q01518 whole entry): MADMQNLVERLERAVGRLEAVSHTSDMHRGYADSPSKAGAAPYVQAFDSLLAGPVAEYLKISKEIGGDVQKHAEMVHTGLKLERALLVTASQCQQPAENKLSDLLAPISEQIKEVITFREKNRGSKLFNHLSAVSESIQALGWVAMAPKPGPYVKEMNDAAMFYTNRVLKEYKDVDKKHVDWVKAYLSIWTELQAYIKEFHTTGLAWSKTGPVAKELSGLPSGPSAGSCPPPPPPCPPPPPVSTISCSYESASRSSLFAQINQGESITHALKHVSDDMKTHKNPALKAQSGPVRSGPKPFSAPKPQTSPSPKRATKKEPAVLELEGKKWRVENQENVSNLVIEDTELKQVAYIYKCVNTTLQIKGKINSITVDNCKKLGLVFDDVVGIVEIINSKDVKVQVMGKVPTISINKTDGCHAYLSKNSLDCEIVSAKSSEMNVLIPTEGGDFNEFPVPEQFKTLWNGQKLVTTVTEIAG
Sequence of human CAP2 with C-terminal GFP and Strep-tag II (human) (P40123 whole entry): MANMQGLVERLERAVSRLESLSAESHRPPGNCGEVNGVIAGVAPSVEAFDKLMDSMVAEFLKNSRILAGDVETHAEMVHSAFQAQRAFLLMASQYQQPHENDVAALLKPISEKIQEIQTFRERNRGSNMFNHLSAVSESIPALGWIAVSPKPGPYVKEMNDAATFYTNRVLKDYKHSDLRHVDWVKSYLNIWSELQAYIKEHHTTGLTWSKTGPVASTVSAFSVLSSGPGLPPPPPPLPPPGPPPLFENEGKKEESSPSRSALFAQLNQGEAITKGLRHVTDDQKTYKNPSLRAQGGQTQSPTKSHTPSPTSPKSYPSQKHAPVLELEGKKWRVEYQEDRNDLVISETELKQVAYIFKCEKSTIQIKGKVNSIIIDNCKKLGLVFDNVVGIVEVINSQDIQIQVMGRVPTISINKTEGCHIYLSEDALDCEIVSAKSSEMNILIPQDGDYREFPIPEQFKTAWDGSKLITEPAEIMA
Sequence of co-expressed CAP1-GFP/CAP2-GFP (human) (Q01518 whole entry, chain 1 of 2): as the sequence (Q01518 whole entry) above
Sequence of co-expressed CAP1-GFP/CAP2-GFP (human) (P40123 whole entry, chain 2 of 2, further chain): as the sequence (P40123 whole entry) above
Sequence of human CAP1 with C-terminal GFP and Strep-tag II (human) (Q01518 whole entry): as the sequence (Q01518 whole entry) above

In the case of “actin of HEK293 cells co-purifying with recombinant CAP (from UniProt P60709 1-375) (natural protein)”, the results for the mole percentage compared to CAP-GFP in assay [1], in assay [2] and in assay [3] were 90.5%, 82.5% and 88.1%, respectively.

Usually stoichiometry N stands for the number of molecules, sites or subunits per partner or assembly. Consider “human INF2-nonCAAX full-length, untagged (natural protein)”, for which, in assay [4], the stoichiometry N was 2.

Substance “mouse brain actin (from UniProt P60710 1-375) (natural protein)” registered a mole percentage compared to CAP in assay [5] of 107%.

What is called Kd is the concentration at which binding is half-saturated. A lower Kd goes with a tighter complex. “untagged CAP2/actin complex purified from tubastatin A-treated 293 cells (from UniProt P40123;P60709)”: the IC50 of inhibition of INF2-mediated actin polymerization, pyrene-actin assay in assay [6] was 0.263 µM. This substance showed a Kd in assay [7] of 1.82 µM.

For “untagged CAP co-purifying with CAP-GFP (likely endogenous HEK293 CAP) (from UniProt Q01518 1-475) (natural protein)”, the mole percentage compared to CAP-GFP in assay [1] came to 16.5%; in assay [2], 16.8%; in assay [3], 16.3%.
